B1: 3A-1 (VHH)
VHH: EVKLVESGGDLVKPGGSLKLSCAASGFTFSSYGMSWIRQTPDKRLEWVATISSGGSYTYYPDSVKGRFTISRDNAKNTLYLQMSSLKSEDTAMYYCARRGRYDDTMDYWGQGTTVTVSS
B2: 3A-9 (VHH)
VHH: B1 VHH with S84G, T114S, V115L
B3: 3A-2 (VHH)
VHH: B1 VHH with V115L
B4: 3A-31 (VHH)
VHH: B1 VHH with I37V, N77S, R101K, V115L
B5: 3A-6 (VHH)
VHH: B1 VHH with A23V
B6: 3A-20 (VHH)
VHH: B1 VHH with K3Q, V5E
B7: 3A-3 (VHH)
VHH: B1 VHH with K76E, T114S, V115L

The source of these data is PMC6167435, “Genetic Removal of the CH1 Exon Enables the Production of Heavy Chain-Only IgG in Mice” (Frontiers in Immunology, 2018).

Residue numbers refer to the chain shown, from its start.

The target in one test is ovalbumin (Gallus gallus (chicken), , UniProt P01012).
Sequence of ovalbumin (P01012 whole entry): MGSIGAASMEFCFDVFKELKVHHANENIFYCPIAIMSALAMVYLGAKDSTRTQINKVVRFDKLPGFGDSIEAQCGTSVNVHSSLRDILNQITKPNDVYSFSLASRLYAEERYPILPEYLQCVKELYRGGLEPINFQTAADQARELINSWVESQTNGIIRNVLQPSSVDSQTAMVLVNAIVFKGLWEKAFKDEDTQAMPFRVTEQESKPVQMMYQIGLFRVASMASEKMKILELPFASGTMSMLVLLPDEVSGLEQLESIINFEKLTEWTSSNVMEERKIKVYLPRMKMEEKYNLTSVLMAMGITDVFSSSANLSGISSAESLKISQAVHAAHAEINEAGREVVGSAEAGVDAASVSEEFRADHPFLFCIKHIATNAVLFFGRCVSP
Test: not given
B1: the binding result is recorded as “binds”. Same read-out and setting: to B2 belongs “binds”; to B3, “binds”; to B4, “binds”. On the same count and under the same terms, the same measure for B5: “binds”; for B6: “binds”; for B7: “binds”.

A further test concerns the target IgG1 heavy chain of HG1 mice (γ1 CH1 exon deleted) (mouse (endogenous in serum of HG1 mice)). Description: SDS-PAGE under non-reducing conditions with Western blotting; serum of HG1 and WT mice; detected with HRP-conjugated goat anti-mouse IgG1 heavy chain; association judged from molecular weights (covalent association).
Regarding “IgG1 heavy chain of HG1 mice (γ1 CH1 exon deleted)”, the stoichiometry N came to 2.
